One may read the stoichiometry N as the number of molecules, sites or subunits per partner or assembly.

Our source for the stoichiometry N values is publication PMC11119796.

In assay [1] the target is endogenous Pkm2 (4T1 cells) (mouse (endogenous in 4T1)) (UniProt P52480). Description: cross-linking; DSS 250 μM added to collected cells in PBS pH 8.0, 30 min at 37 °C, quenched with 10 mM Tris-HCl pH 7.5; lysis and Western blot of PKM2; 4T1 cells (control or Islr-deleted) and A549 cells (with or without stable ISLR, H2O2 at indicated dose for 30 min). In general terms: A western blot detects proteins with antibodies after separation by electrophoresis.

The target of assay [2] is endogenous PKM2 (A549 cells) (human (endogenous in A549)) (UniProt P14618). The assay is described as above.

Values joined by “and” are separate entries in the source; they are usually repeats but may differ in a detail not shown here. Equal values may be shown once.

Sequence of endogenous Pkm2 (4T1 cells), P52480 1-531 (enzyme; other documents disagree on this pair) (P52480 whole entry): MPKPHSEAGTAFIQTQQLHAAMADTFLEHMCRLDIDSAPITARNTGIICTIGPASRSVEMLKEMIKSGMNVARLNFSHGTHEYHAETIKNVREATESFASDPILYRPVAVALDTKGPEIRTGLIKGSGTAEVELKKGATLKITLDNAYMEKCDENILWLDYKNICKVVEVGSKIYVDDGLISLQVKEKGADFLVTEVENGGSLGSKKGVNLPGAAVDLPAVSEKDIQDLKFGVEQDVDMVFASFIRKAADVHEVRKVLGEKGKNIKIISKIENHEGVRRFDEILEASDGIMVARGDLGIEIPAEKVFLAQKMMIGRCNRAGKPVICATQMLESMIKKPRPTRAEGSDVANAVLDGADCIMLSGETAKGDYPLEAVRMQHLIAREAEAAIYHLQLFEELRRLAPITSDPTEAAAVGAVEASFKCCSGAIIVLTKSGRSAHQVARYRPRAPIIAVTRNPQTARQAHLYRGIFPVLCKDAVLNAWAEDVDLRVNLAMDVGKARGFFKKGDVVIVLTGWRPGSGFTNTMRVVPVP
Sequence of endogenous PKM2 (A549 cells), P14618 1-531 (enzyme; other documents disagree on this pair) (P14618 whole entry): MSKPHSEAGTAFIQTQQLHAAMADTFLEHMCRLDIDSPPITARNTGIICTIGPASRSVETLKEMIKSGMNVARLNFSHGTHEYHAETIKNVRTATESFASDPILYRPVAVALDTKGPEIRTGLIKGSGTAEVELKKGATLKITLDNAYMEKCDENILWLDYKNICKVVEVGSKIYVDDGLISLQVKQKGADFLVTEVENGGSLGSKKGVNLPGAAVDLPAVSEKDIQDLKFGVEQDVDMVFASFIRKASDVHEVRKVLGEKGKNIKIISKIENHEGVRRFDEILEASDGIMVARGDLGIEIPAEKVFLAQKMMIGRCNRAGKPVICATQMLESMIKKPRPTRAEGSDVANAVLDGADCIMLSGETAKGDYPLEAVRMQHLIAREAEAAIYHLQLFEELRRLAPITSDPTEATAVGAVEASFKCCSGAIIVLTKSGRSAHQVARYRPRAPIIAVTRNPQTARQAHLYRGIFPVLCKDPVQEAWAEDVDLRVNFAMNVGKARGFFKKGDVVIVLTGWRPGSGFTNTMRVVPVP

Take “endogenous Pkm2 (4T1 cells), P52480 1-531 (enzyme; other documents disagree on this pair)”: the stoichiometry N in assay [1] was 2 and 4.
Regarding “endogenous PKM2 (A549 cells), P14618 1-531 (enzyme; other documents disagree on this pair)”, the stoichiometry N in assay [2] worked out at 2.
